Laboratory results from US20210395318A1 (Molecular Partners, published 2021).

Legend:
[1] = target: T1, biotinylated mouse CD40 (Acro Biosystem) (mouse, UniProt P27512 24-193, limits assumed, biotinylated (sites not given)); test: SPR (ProteOn XPR36), bio-mCD40 on NLC chip, Protein #5 as analyte
T1 construct: also called Bio-mCD40
T1 sequence (looked up): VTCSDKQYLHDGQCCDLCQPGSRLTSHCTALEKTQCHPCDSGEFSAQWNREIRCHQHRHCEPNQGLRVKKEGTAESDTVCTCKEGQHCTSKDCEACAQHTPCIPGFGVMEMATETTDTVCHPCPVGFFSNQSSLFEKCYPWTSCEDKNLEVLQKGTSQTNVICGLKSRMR
Method: All SPR measurements were performed using a ProteOn XPR36 instrument (BioRad) and a running buffer of PBS pH 7.4 containing 0.005% Tween 20® (PBST). The 1:1 Langmuir model was used for the fitting of SPR traces.
ProteOn setup for Protein #5 binding to CD40 of different species. CD40 proteins (Acro Biosystem) of different species (human, cynomolgus, mouse) were biotinylated with standard methods known in the art, resulting in bio-hCD40, bio-cCD40 and bio-mCD40 proteins. The bio-hCD40, bio-cCD40 and bio-mCD40 proteins were immobilized on an NLC chip (BioRad) to a level of respectively 300 RU, 250 RU and 300 RU. The interaction of Protein #5 with CD40 was measured by injecting Protein #5 in a serial dilution of 3, 1.5, 0.75, 0.38 and 0.19 nM with an association of 120 s and dissociation of 900 s using a constant flow of 100 μl/min. The measurement was repeated two or three times and the targets were regenerated between the individual measurements using 10 mM glycine pH 2 for 18 s at a flow of 100 μl/min. The signals were double referenced against the running buffer (PBST) treated control lanes.

[2] = target: human CD40 on primary human B cells or human monocyte-derived dendritic cells (human, UniProt P25942 21-277); test: cell-based or functional assay
human CD40 on primary human B cells or human monocyte-derived dendritic cells, sequence (P25942 21-277 H80K/K81H limits assumed): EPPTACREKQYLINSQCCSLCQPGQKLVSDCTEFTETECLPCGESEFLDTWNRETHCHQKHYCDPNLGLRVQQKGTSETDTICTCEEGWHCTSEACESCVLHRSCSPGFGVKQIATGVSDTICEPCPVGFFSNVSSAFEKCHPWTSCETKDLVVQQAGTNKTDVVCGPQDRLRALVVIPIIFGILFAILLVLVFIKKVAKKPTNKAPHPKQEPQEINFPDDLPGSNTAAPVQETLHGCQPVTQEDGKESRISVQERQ

B1: DARPin Protein #5 (designed binder)
chain: GSDLGKKLLEAARAGQDDEVRELLKAGADVNAKDYFSHTPLHLAARNGHLKIVEVLLKAGADVNAKDFAGKTPLHLAAADGHLEIVEVLLKAGADVNAQDIFGKTPADIAADAGHEDIAEVLQKAAGSPTPTPTTPTPTPTTPTPTPTGSDLGKKLLEAARAGQDDEVRILLAAGADVNAKDVLGWTPLHLAAFEGHLEIVEVLLKAGADVNAKDKKGWTPLQLAARTGHLEIVEVLLKAGADVNAKDHIGATPLHLAAWQGHPEIVEVLLKAGADVNAQDKSGKTPADLAADAGHEDIAEVLQKAAGSPTPTPTTPTPTPTTPTPTPTGSDLGKKLLQAARAGQLDEVRELLKAGADVNAKDTWGFTPLHIAAESGHLEIVEVLLKAGADVNAKDVQGRTPLHIAAHSGHLEIVEVLLKAGADVNAKDFRGWTPLHLAAWSGHLEIVEILLKAGADVNAQDKSGKTPADLAARAGHQDIAEVLQKAAGSPTPTPTTPTPTPTTPTPTPTGSDLGKKLLQAARAGQLDEVRELLKAGADVNAKDTWGFTPLHIAAESGHLEIVEVLLKAGADVNAKDVQGRTPLHIAAHSGHLEIVEVLLKAGADVNAKDFRGWTPLHLAAWSGHLEIVEILLKAGADVNAQDKSGKTPADLAARAGHQDIAEVLQKAA
notes: also called SMA136; Molecule No. 1
**Q.** What does the source list for B1?
**A.** binding result [1]: no binding (tested: 3 nM (highest concentration injected)); EC50, upregulation of CD86 and CD69 in human B cells co-cultured with FAP-expressing CHO cells [2]: 0.04 to 0.07 nM
